This assay has as its target CEACAM3 WT-HA-CyPet, tyrosine-phosphorylated (coexpressed with v-Src) (UniProt P40198). The assay can be described thus: FRET or BRET; flow cytometric FRET in intact cotransfected 293T cells (with or without v-Src); CyPet and YPet double-positive cells gated; FRET channel excitation 405 nm, emission 525/50 nm; LSR II.
Sequence of UniProt P40198 (P40198 35-252): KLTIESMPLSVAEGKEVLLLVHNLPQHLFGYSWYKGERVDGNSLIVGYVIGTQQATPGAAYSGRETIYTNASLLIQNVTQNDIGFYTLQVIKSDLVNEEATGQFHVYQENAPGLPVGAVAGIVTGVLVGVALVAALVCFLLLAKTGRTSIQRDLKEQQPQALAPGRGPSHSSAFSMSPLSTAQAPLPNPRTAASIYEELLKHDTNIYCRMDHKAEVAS

The substance “YPet-Hck-SH2 (SH2 domain of human Hck fused to YPet) (from UniProt P08631 144-241) (domain or fragment)” had a fold increase in the mean fluorescence intensity in the FRET channel of 4 fold.
